From WO2021241730A1 (dated 2021)
Numbering of substitutions follows the chain as printed.

T1: mouse IL-22BP-His (mouse, UniProt Q80XF5 21-230)
T1 chain: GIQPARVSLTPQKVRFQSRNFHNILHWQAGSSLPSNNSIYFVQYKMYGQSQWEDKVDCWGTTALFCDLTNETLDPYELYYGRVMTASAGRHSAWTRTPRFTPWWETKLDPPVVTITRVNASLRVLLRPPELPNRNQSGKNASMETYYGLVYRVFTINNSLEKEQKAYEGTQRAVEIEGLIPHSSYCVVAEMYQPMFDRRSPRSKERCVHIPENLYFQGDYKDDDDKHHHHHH

T2: monkey IL-22BP-His (monkey)
T2 chain: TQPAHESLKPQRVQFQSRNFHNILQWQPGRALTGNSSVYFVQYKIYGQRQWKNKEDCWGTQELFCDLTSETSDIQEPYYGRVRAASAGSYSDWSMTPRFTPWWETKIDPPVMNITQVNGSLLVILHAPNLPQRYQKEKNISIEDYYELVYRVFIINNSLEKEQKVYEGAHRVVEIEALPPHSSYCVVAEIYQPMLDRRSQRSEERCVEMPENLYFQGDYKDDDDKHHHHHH

T3: human IL-22BP (Isoform 2)-His (human, UniProt Q969J5 22-263)
T3 construct: Expressed in FreeStyle 293F cells and purified from the culture supernatant; also called human IL-22BP-His
T3 sequence: T2 chain with P3S, A4T, F64S, D92E, Q132Y, I140V, V149L, V172A, P179T, M209I

B1: rat anti-human IL-22BP antibody rMAb20 (antibody, rat IgG1, V domains shown)
VH: QVQLKESGPGLVQPSQTLSLACTVSGFSLTTYHVHWVRQPSGEGLEWMGVIWTGGSTEYNSALKPRLSISRDTSKSQVFLKMNVLQTEDTATYYCARESRGRRIFDYWGQGVMVTVSS
VL: DIQMTQSPSVLSASVGDRVTLNCKASQNINKYLNWYQQKLGEAPKLLIYNTNNLQTGIPSRFSGSGSGTDYTLTISSLQPEDFGTYFCFHHNSWPLTFGSGTKLEIKR
notes: Rat IgG1, kappa chain, from hybridoma
B2: rat anti-human IL-22BP antibody rMAb81 (antibody, rat IgG1, V domains shown)
VH: EVQLVESGGGLVQPGRSLKLSCLASGFTFSNYGMNWIRQAPGKGLEWVATISSGSSYIYYADTVKGRFTISRENARNTLYLQMTSLRSEDTAFYYCARPLTGAFDYWGQGVMVTVSS
VL: DIVLTQSPALAASLGQRATISCRASQSVSTSSHNLMHWYQQKPGHQPKLLIYAASNLASSIPARFSGSGSGTDFTLTINPVQADDIATYYCQQSRELPLTFGSGTKLEIKR
notes: as for B1
B3: rat anti-human IL-22BP antibody rMAb4 (antibody, rat IgG1, V domains shown)
VH: EVQLVESGGGLVQPGRSLKLSCAASGFTYSNYVMAWVRQAPTKGLEWVASISTGGGNTSYRDSVKGRFTISRDNAKNTLYLQMDSLRSEDTATYYCANVSPTEGMDYWGQGVMVTVSS
VL: DIVMTQGALPNPVPSGESVSITCRSSKSLLYSNGKTYLNWYLQRPGQSPQLLIYWMSTRASGVSDRFSGGGSGTDFTLKISGVEAEDVGVYYCQQGLELPLTFGSGTKLEIKR
notes: as for B1
B4: rat anti-human IL-22BP antibody rMAb3 (antibody, rat IgG1, V domains shown)
VH: EVQLQQSGAELVRPGTSVKLSCKLSGGTISAYFIHFVKQRPGQGLEWIGRIDPEDDSTEYAEKFKNKATLTADTSSNTAYLILGSLTSDDTATYFCTTGSDYWGQGVMVTVSS
VL: DVVMTQTPVSLSLAIGQPASISCKSSQSLLGTSGKTFLNWILQRPGQSPKRLIYQVSKLYSGVPDRFSGSGSETEFTLKISRVEAEDLGVYYCWQGTLFPRTFGGGTKLEVKR
notes: as for B1
B5: rat anti-human IL-22BP antibody rMAb8 (antibody, rat IgG2a, V domains shown)
VH: QVQLKESGPGLVQPSQTLSLTCTVSGFSLSSYTVSWVRQPPGKGLDWIAAISSGGSTYYNSALKSRLTISRDTSKSQVFLKMNSLQTEDTAMYFCARSTGDYWGQGVMVTVSS
VL: DIQMTQSPSLLSASVGDRVTLNCKASQSIYKNLAWYQQKLGEAPKLLIYSAKSLQTGTPSRFSGSGSGTDFTLTISSLQPEDVATYFCHQYYSGWTFGGGTKLELKR
notes: Rat IgG2a, kappa chain, from hybridoma
B6: rat anti-human IL-22BP antibody rMAb14 (antibody, rat IgG1, V domains shown)
VH: B5 VH with S30T, D46E, T68S, N83S, T90A
VL: B5 VL with S28N, A43T, K45R, K52N, S53R, T58I
notes: as for B1
B7: human chimeric anti-human IL-22BP antibody cMAb4 (antibody, human IgG1, kappa, V domains shown)
VH: B3 VH with S59A, N98R
VL: B3 VL
notes: Rat variable regions on human IgG1 / kappa constant regions
B8: humanized anti-human IL-22BP antibody hMAb4_H03L01 (antibody, human IgG1, kappa, V domains shown)
VH: EVQLVESGGGLVQPGGSLRLSCAASGFTYSNYVMAWVRQAPGKGLEWVASISTGGGNTAYRDSVKGRFTISRDNSKNTLYLQMNSLRAEDTAVYYCARVSPTEGMDYWGQGTLVTVSS
VL: DIVMTQGPLSLPVTPGEPASISCRSSKSLLYSNGKTYLNWYLQKPGQSPQLLIYWMSTRASGVPDRFSGGGSGTDFTLKISRVEAEDVGVYYCQQGLELPLTFGQGTKVEIKR
notes: Human IgG1 / kappa
B9: humanized anti-human IL-22BP antibody hMAb4_H02L05 (antibody, human IgG1, kappa, V domains shown)
VH: B8 VH with A49S
VL: DIQMTQSPSSLSASVGDRVTITCRSSKSLLYSNGKTYLNWYQQKPGKSPKLLIYWMSTRASGVPDRFSGGGSGTDFTLTISSLQPEDFATYYCQQGLELPLTFGQGTKVEIKR
notes: Human IgG1 / kappa
B10: humanized anti-human IL-22BP antibody hMAb4_H03L03 (antibody, human IgG1, kappa, V domains shown)
VH: B8 VH
VL: DIVMTQGPDSLAVSLGERATITCRSSKSLLYSNGKTYLNWYQQKPGQPPKLLIYWMSTRASGVPDRFSGGGSGTDFTLTISSLQAEDVAVYYCQQGLELPLTFGQGTKVEIKR
notes: Human IgG1 / kappa
B11: human chimeric anti-human IL-22BP antibody cMAb3 (antibody, human IgG1, kappa, V domains shown)
VH: B4 VH
VL: B4 VL
notes: as for B7
B12: humanized anti-human IL-22BP antibody hMAb3_H01L03 (antibody, human IgG1, kappa, V domains shown)
VH: EVQLVQSGAEVKKPGASVKVSCKASGGTISAYFIHWVRQAPGQGLEWMGRIDPEDDSTEYAQKFQGRVTITADTSTNTAYMELSSLRSEDTAVYYCTTGSDYWGQGTLVTVSS
VL: B4 VL with S12P, L13V, A14T, I15L, L42Q, E73G, E75D, L88V, L109V, V111I
notes: Human IgG1 / kappa
B13: humanized anti-human IL-22BP antibody hMAb3_H01L04 (antibody, human IgG1, kappa, V domains shown)
VH: B12 VH
VL: DVVMTQSPLSLPVTLGQPASISCKSSQSLLGTSGKTFLNWIQQRPGQSPKRLIYQVSKLYSGVPDRFSGSGSGTEFTLKISRVEAEDVGVYYCWQGTLFPRTFGGGTKVEIKR
notes: Human IgG1 / kappa
B14: humanized anti-human IL-22BP antibody hMAb3_H04L03 (antibody, human IgG1, kappa, V domains shown)
VH: B12 VH with A24L, W36F, I70L, M81L, Y95F
VL: B13 VL with S7T, L9V, E75D
notes: Human IgG1 / kappa

Target: T1, mouse IL-22BP-His
Experiment: direct ELISA on coated mouse IL-22BP-His

| Binder | binding result |
| --- | --- |
| B1 | no binding |
| B2 | no binding |
| B3 | no binding |
| B4 | no binding |

Target: T1, mouse IL-22BP-His
Experiment: direct ELISA on coated mouse IL-22BP-His, purified rat antibody

| Binder | binding result |
| --- | --- |
| B5 | binds |
| B6 | binds |

Target: T2, monkey IL-22BP-His
Experiment: direct ELISA on coated monkey IL-22BP-His, purified rat antibody

| Binder | binding result |
| --- | --- |
| B1 | binds |
| B2 | binds |
| B5 | binds |
| B6 | binds |
| B3 | binds |
| B4 | binds |

Target: T3, human IL-22BP (Isoform 2)-His
Experiment: direct ELISA screen on coated human IL-22BP-His, then competition ELISA with IL-22; hybridoma supernatant

| Binder | binding result |
| --- | --- |
| B3 | binds |
| B4 | binds |

Target: T3, human IL-22BP (Isoform 2)-His
Experiment: competition ELISA on captured human IL-22BP-His, IL-22 as competitor; weaker inhibitory tendency than cMAb3 and the hMAb3 antibodies

| Binder | binding result |
| --- | --- |
| B7 | binds |
| B8 | binds |
| B9 | binds |
| B10 | binds |

Target: T3, human IL-22BP (Isoform 2)-His
Experiment: competition ELISA on captured human IL-22BP-His, IL-22 as competitor; stronger inhibitory tendency than cMAb4 and the hMAb4 antibodies

| Binder | binding result |
| --- | --- |
| B11 | binds |
| B12 | binds |
| B13 | binds |
| B14 | binds |

Target: T3, human IL-22BP (Isoform 2)-His
Experiment: direct ELISA on coated human IL-22BP-His, purified rat antibody

| Binder | binding result |
| --- | --- |
| B1 | binds |
| B2 | binds |
| B5 | binds |
| B6 | binds |
